Source: patent US20080081035

T1: D-val-leu-lys-pNA
T1 chain: VLK

T2: human recombinant IFN-γ, P01579
T2 chain: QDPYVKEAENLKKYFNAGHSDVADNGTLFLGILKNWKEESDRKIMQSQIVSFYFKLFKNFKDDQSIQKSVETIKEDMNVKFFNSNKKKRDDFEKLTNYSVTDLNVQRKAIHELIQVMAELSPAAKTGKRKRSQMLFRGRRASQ

T3: mouse recombinant TNF-α, P06804
T3 chain: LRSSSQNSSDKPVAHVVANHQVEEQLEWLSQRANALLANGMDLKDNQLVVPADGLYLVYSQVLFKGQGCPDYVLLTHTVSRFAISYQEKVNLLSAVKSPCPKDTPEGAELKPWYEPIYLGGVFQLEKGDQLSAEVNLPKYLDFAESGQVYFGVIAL

T4: mouse recombinant IFN-γ, P01580
T4 chain: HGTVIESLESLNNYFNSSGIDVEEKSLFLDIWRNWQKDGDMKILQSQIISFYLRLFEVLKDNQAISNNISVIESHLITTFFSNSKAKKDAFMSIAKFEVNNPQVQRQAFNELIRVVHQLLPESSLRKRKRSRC


What was measured:
D-val-leu-lys-pNA = target: T1, D-val-leu-lys-pNA
[1] = target: Protamine sulfate from salmon
[2] = target: T2, human recombinant IFN-γ, P01579
[3] = target: human recombinant TNF-α, P01375
[4] = target: T3, mouse recombinant TNF-α, P06804
[5] = target: T4, mouse recombinant IFN-γ, P01580

Chain of human recombinant TNF-α, P01375 (P01375 77-233): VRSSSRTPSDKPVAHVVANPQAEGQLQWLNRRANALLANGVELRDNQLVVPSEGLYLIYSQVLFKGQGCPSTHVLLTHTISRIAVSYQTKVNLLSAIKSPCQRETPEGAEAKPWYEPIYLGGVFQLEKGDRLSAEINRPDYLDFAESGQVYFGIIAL

Protein | Specific activity: Val-leu-lys-pNA (mOD/min/µg protein) (mOD/min/µg protein) (D-val-leu-lys-pNA) | Specific activity: Salmon protamine (nmoles Leucine/30 min./µg protein) (nmoles Leucine/30 min./µg protein) [1] | cleavage by Western blot [2] | proteolysis by Western blotting [3] | cleavage by Western blotting [4] | cleavage by Western blotting [5]
Aspergillus oryzae Deuterolysin (Neutral Protease II) (protein) TEVTDCKGDAESSLTTALSNAAKLANQAAEAAESGDESKFEEYFKTTDQQTRTTVAERLRAVAKEAGSTSGGSTTYHCNDPYGYCEPNVLAYTLPSKNEIANCDIYYSELPPLAQKCHAQDQATTTLHEFTHAPGVYQPGTEDLGYGYDAATQLSAQDALNNADSYALYANAIELKC | 2.3 | 677 | cleave human IFN-γ | deuterolysin was without significant effect | – | –
Aspergillus oryzae 26 kDa protease (protein) HASADAWASSKAISSTSSPSSFKMRFISVSSLLLALAPALNAVPVEVAGSAQGLDVTLSQVGNTRIKAWKNTGSEDVTFVHLNFFKDAAPVQKVSLFRNATEVQFQGIKQRLITEGLSDDALTTLAPGATIEDEFDIASTSDLSEGGTITINSNGLVPITTDNKVTGYIPFTSNELSIDVDAAEAASVTQAVKILERRTKVTSCSGSRLSALQTALRNTVSLARAAATAAQSGSSSRFQEYFKTTSSSTRSTVAARLNAVANEAASTSSGSTTYYCSDVYGYCSSNVLAYTLPSYNIIANCDLYYSYLPALTSTCHAQDQATTTLHEFTHAPGVYSPGTDDLGYGYSAATALSASQALLNADTYALFANAVNLNC | 2.1 | 679 | cleave human IFN-γ | – | – | –
Aspergillus oryzae alkaline protease (protein) GLTTQKSAPWGLGSISHKGQQSTDYIYDTSAGEGTYAYVVDSGVNVDHEEFEGRASKAYNAAGGQHVDSIGHGTHVSGTIAGKTYGIAKKASILSVKVFQGESSSTSVILDGFNWAANDIVSKKRTSKAAINMSLGGGYSKAFNDAVENAFEQGVLSVVAAGNENSDAGQTSPASAPDAITVAAIQKSNNRASFSNFGKVVDVFAPGQDILSAWIGSSSATNTISGTSMATPHIVGLSLYLAALENLDGPAAVTKRIKELATKDWKDVKGSPNLLAYNGNA | 117 | 951 | the protease did not cleave human IFN-γ | produced a similar pattern of cleavage | evidenced the same substrate specificity | evidenced the same substrate specificity
